Measurements as given in patent publication KR20210154940A (dated 2021).

T1: hCEACAM1 (R&D Systems, CAT. NO. 2244-CM) (human, UniProt P13688 35-428)
T1 construct: not shown: a His tag is implied by the use of Anti-His (His1K) biosensors
T1 sequence: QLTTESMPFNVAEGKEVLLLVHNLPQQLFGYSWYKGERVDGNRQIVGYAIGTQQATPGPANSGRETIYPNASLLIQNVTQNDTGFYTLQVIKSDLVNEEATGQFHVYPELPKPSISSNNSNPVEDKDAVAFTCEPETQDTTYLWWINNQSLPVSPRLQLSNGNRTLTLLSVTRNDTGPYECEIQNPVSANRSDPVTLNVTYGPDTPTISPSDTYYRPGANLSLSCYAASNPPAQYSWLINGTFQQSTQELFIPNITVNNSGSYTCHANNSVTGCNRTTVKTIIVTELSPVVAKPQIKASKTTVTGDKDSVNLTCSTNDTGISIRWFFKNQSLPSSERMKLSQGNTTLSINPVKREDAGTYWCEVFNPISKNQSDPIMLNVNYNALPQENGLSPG


Tests used:
[1] = biological target: CEACAM1 N-도메인 (CEACAM1 N-domain, residues 35-141) (human) (UniProt P13688); assay: X-ray crystal structure of the Fab and N-domain complex
[2] = biological target: T1, hCEACAM1 (R&D Systems, CAT. NO. 2244-CM); assay: BLI (Octet QKe); Anti-His (His1K) biosensors, hCEACAM1 (R&D 2244-CM), antibody at 6.25-400 nM
[3] = biological target: T1, hCEACAM1 (R&D Systems, CAT. NO. 2244-CM); assay: not named in this sentence (BLI in Example 4); differs from the table cell
[4] = biological target: T1, hCEACAM1 (R&D Systems, CAT. NO. 2244-CM); assay: BLI (Octet QKe); sentence that introduces Table 5, differs from the table cell

항원-항체 결합의 전체 표면적 [1] [Å2]	Kd [2] [nM]	koff [2] [s⁻¹]	kon [2] [M⁻¹ s⁻¹]	Kd [3] [nM]	Kd [4] [nM]	Binder
792						항-CEACAM1 항체의 Fab (Fab of the anti-CEACAM1 antibody, papain fragment of the IgG1-type antibody) (Fab, V domains shown) VH: EVQLLESGGGLVQPGGSLRLSCAASGFTFSNYAMSWVRQAPGKGLEWVSVISHGGGSIYYADSVKGRLTISRDNSKNTLYLQMNSLRAEDTAVYYCARDPTKGYAPTFDYWGQGTLVTVSS VL: QSVLTQPPSASGTPGQRVTISCSGSSSNIGNNYVSWYQQLPGTAPKLLIYADSRRPSGVPDRFSGSKSGTSASLAISGLRSEDEADYYCGAWDLSLNGYVFGGGTKLTVLG
	3.39	0.000567	163000	3.36	3.9	항-CEACAM1 항체 (anti-CEACAM1 antibody, IgG4 type) (antibody, V domains shown, also called 일 실시예의 항-CEACAM1 항체) VH: EVQLLESGGGLVQPGGSLRLSCAASGFTFSNYAMSWVRQAPGKGLEWVSVISHGGGSIYYADSVKGRLTISRDNSKNTLYLQMNSLRAEDTAVYYCARDPTKGYAPTFDYWGQGTLVTVSS VL: QSVLTQPPSASGTPGQRVTISCSGSSSNIGNNYVSWYQQLPGTAPKLLIYADSRRPSGVPDRFSGSKSGTSASLAISGLRSEDEADYYCGAWDLSLNGYVFGGGTKLTVLG
